Data taken from the supplement of paper PMC10065799, “High-throughput profiling of sequence recognition by tyrosine kinases and SH2 domains using bacterial peptide display” (eLife, 2023).

What follows are sequences tested against c-Src SH2 (assay: SH2 binding enrichment of the phosphorylated peptide, bacterial display (enrichment ratio); higher = better substrate or ligand; peptides without Tyr show the background).
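Also: peptide library displayed on the E. coli surface as eCPX fusions, selected cells deep-sequenced, score is each peptide's frequency after selection divided by its frequency in the input.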

Row | Sequence | SH2 binding enrichment
1 | QSSEGYDLGDR [KIAA1210_Y564_G565D] | 0.719
2 | VFSTDYFRVGG [NTRK2_Y706_YF] | 0.556
3 | ALKKPYSVLYK [RPF2_Y59_G60S] | 1.38
4 | ASMAKYFASEI [ACADSB_Y372_YF] | 0.497
5 | FETNVYVDKNL [PTCHD3_Y688_K685T] | 0.693
6 | EPVSDYINANV [PTPN11_Y304_I309V] | 0.466
7 | KHMADYPDFKF [SOX11_Y113_YF] | 0.387
8 | LEQGEYALRSH [HADHB_Y244_D242G] | 0.55
9 | FFRKVYHLASV [RBL1_Y796_YF] | 0.667
10 | REEKNYKHKET [BCLAF1_Y459_L461H] | 0.624
11 | LFNQDYPIHCV [GATM_Y227_S231C_YF] | 0.407
12 | QEIATYRRLLE [KRT14_Y415] | 0.413
13 | QLGLQYSQGLV [EIF2B4_Y214_R209Q] | 0.375
14 | HTDDGYMPMSP [IRS1_Y612] | 2.53
15 | SQPASYQRRLL [PPIG_Y320] | 0.428
16 | NVVNEYSSELE [FGB_Y172] | 0.556
17 | LFEDCYLLGTS [ASS1_Y87_R86C_YF] | 0.647

Row | Sequence | SH2 binding enrichment
18 | RGEAVYSRDCV [XPC_Y676] | 0.522
19 | EEGENYQKGER [CHGB_Y173] | 0.436
20 | TTKGAYSLSVR [YES1_Y194_I198V] | 0.402
21 | ATDLAYFLVRE [ASL_Y375_K380E_YF] | 1.26
22 | GESQGYDIMEA [MSH2_Y863_P868A] | 4.32
23 | DLNATYRTIQG [U2SURP_Y634] | 0.813
24 | FHLGKYLQEVL [KLB_Y910_Y906H_YF] | 0.49
25 | TVSTRYTQPQP [SARG_Y259] | 0.81
26 | PVGVLYEVKVY [PTS_Y128_K129E] | 0.537
27 | LPSKDYAEVGR [HP_Y272] | 2.68
28 | YLEEEYVKAVG [TF_Y674_G671E] | 0.323
29 | SKEPYYVHCIK [MYO1D_Y586_R588H] | 0.81
30 | FRDALYKFMVD [PHEX_Y250_YF] | 0.77
31 | NTGDFCDLFGG [PTPN11_Y63_Y63C_YF] | 0.632
32 | GRSTFYWPSPR [GAGE12J_Y10_R13S_YF] | 1.26
33 | FNSLPYQVPTS [CALCOCO2_Y358] | 0.843

The sequences below were run against Grb2 SH2 (UniProt P62993) in the same assay as above.
Chain of Grb2 SH2 (P62993 whole entry, looked up): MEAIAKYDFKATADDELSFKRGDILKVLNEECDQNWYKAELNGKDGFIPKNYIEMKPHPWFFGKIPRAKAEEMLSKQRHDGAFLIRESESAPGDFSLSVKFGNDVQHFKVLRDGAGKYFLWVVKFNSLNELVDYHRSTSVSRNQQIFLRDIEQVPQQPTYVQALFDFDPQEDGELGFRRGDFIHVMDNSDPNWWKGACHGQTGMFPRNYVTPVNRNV

Row | Sequence | SH2 binding enrichment
34 | QSSEGYDLGDR [KIAA1210_Y564_G565D] | 1.13
35 | VFSTDYFRVGG [NTRK2_Y706_YF] | 0.761
36 | ALKKPYSVLYK [RPF2_Y59_G60S] | 1.72
37 | ASMAKYFASEI [ACADSB_Y372_YF] | 0.75
38 | FETNVYVDKNL [PTCHD3_Y688_K685T] | 0.968
39 | EPVSDYINANV [PTPN11_Y304_I309V] | 1.14
40 | KHMADYPDFKF [SOX11_Y113_YF] | 0.733
41 | LEQGEYALRSH [HADHB_Y244_D242G] | 0.752
42 | FFRKVYHLASV [RBL1_Y796_YF] | 0.979
43 | REEKNYKHKET [BCLAF1_Y459_L461H] | 0.93
44 | LFNQDYPIHCV [GATM_Y227_S231C_YF] | 0.446
45 | QEIATYRRLLE [KRT14_Y415] | 0.862
46 | QLGLQYSQGLV [EIF2B4_Y214_R209Q] | 0.644
47 | HTDDGYMPMSP [IRS1_Y612] | 0.771
48 | SQPASYQRRLL [PPIG_Y320] | 0.729
49 | NVVNEYSSELE [FGB_Y172] | 0.932
50 | LFEDCYLLGTS [ASS1_Y87_R86C_YF] | 1.24

Row | Sequence | SH2 binding enrichment
51 | RGEAVYSRDCV [XPC_Y676] | 0.788
52 | EEGENYQKGER [CHGB_Y173] | 0.816
53 | TTKGAYSLSVR [YES1_Y194_I198V] | 0.768
54 | ATDLAYFLVRE [ASL_Y375_K380E_YF] | 0.827
55 | GESQGYDIMEA [MSH2_Y863_P868A] | 0.778
56 | DLNATYRTIQG [U2SURP_Y634] | 0.876
57 | FHLGKYLQEVL [KLB_Y910_Y906H_YF] | 0.706
58 | TVSTRYTQPQP [SARG_Y259] | 0.744
59 | PVGVLYEVKVY [PTS_Y128_K129E] | 0.966
60 | LPSKDYAEVGR [HP_Y272] | 0.766
61 | YLEEEYVKAVG [TF_Y674_G671E] | 0.75
62 | SKEPYYVHCIK [MYO1D_Y586_R588H] | 1.16
63 | FRDALYKFMVD [PHEX_Y250_YF] | 0.897
64 | NTGDFCDLFGG [PTPN11_Y63_Y63C_YF] | 1.15
65 | GRSTFYWPSPR [GAGE12J_Y10_R13S_YF] | 1.49
66 | FNSLPYQVPTS [CALCOCO2_Y358] | 1.12
